# Reference: the nanobody polyreactivity screen of Harvey et al. (2022)
# Assay: yeast display, Sf9 membrane polyspecificity reagent, FACS + sequencing; frameworks hold sequencing errors
# How it was run: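 Nanobodies from a synthetic yeast display library (Saccharomyces cerevisiae BJ5465), induced 36–48 hours with galactose, were stained 1 hour at 4 °C with 10% biotinylated, detergent-solubilized Sf9 membrane reagent, enriched on streptavidin microbeads, then FACS-sorted. Anti-HA (expression) and streptavidin (reagent binding) fluorescence set low and high (top ~1%) gates. Polyreactivity labels come from the gate of origin. Genes were colony-PCR amplified, MiSeq 2 × 250 sequenced and filtered by CDR length.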
row,Sequence,polyreactivity (PSR sort gate)
1,QVQLVESGGGLVQAGGSLRLSCAASGSIFRKYALGWYRQAPGKERELVAAIRSSGGSTYYADSVKGRFTISRDNAKNTVYLQMNSLKPEDTAVYYCAARYYRPSRYDYWGQGTQVTVSS,high polyreactivity
2,QVQLVESGGGLVQAGGSLRLSCAASGSIFRLNAMGWYRQAPGKERELVAAISRNTGRTYYADSVKGRFTISRDNAKNTVYLQMNSLKPEDTAVYYCAADRSPTGYVRVYYWGQGPQVTVSS,high polyreactivity
3,QVQLVESGGGLVQAGGSLRLSCAASGSIFRLNAMGWYRQAPGKERELVARIDSSGSTNYADSVKGRFTISRDNAKNTVYLQMNSLKPEDTAVYYCAAGLVLIVGMDSWGQGTQVTVSS,low polyreactivity
4,QVQLVESGGGLVQAGGSLRLSCAASGSIFRLNTMGWYRQAPGKERELVAAIFTSGGSTYADSVKGRFTISRDNAKNTVYLQMNSLKPEDTAVYYCAGMDYWGQGTQVTVSS,low polyreactivity
5,QVQLVESGGGLVQAGGSLRLSCAASGSIFRLYAMGWYRPAPGKERELVATITSGGNTYADSVKGRFTISRDNAKNTVYLQMNSLKPEDTAVYYCAARYRYRGTQRPYVGYYRNDYWGQGTQVTVSS,high polyreactivity
6,QVQLVESGGGLVQAGGSLRLSCAASGSIFRLYAMGWYRQAPGKERELVAAISRRGGSTNYADSVKGRFTISRDNAKNTVYLQMNSLKPEDTAVYYCARDVDTHYPYAYDYWGQGTQVTVSS,high polyreactivity
7,QVQLVESGGGLVQAGGSLRLSCAASGSIFRLYGMGWYRQAPGKERELVASITYRGGNTYYADSVKGRFTISRDNAKNTVYLQMNSLKPEDTAVYYCARSGYQKVGGFRYDYWGQGTQVTVSS,low polyreactivity
8,QVQLVESGGGLVQAGGSLRLSCAASGSIFRLYTMGWYRQAPGKERELVAAISQSGGRTYYADSVKGRFTISRDNAKNTVYLQMNSLNPEDTAVYYCNAVGPYRPYGGQGAPYDYWGQGTQVTVSS,high polyreactivity
9,QVQLVESGGGLVQAGGSLRLSCAASGSIFRNYAMGWSRQAPGKERELVAAITSIGGGTYYADSVKGRFTISRDNAKNTVYLQMNSLKPEDTADYYCAADYGFYPYDYVYWGQGTQVTVSS,low polyreactivity
10,QVQLVESGGGLVQAGGSLRLSCAASGSIFRNYAMGWYRQAPGKERELVAAITRGGGSTYYADSVKGRFTISRDNAKNTVYLQMNSLKPEDTAVYYGAAGSTRERNPRYGYWGQGTQVTVSS,high polyreactivity
11,QVQLVESGGGLVQAGGSLRLSCAASGSIFRPNAMGWYRQAPGKERELVAAITWSGDSTYYADSVKGRFTISRDNAKNTVYLQMNSLKPEDTADYYCAADFTYQGSSANDYWGQGTQVTVSS,low polyreactivity
12,QVQLVESGGGLVQAGGSLRLSCAASGSIFRQYAMGWYRQAPGKDRELVAAIRSGGSTYYADSVQGRFTISRDNAKNTVYLQMNSLKPEDTAVYYCARGYSWSVGYPRVQDMDYWGQGTQVTVSS,high polyreactivity
13,QVQLVESGGGLVQAGGSLRLSCAASGSIFRRYAMGWNRQAPGKERELVAYISRSGGSTYYADSVKGRFTISRDNAKNTVYLQMNRLKPEDTAVYYCAAQRYRTGDSWGQGTQVTVSS,high polyreactivity
14,QVQLVESGGGLVQAGGSLRLSCAASGSIFRRYAMGWYRQAPGKEREFVAAITRSGGGTYYADSVKGRFTLSRDNAKNTVYLQMNSLIPEDTAVYYCAKDVFVQRSRYPEGDYWGQGTQVTVSS,high polyreactivity
15,QVQLVESGGGLVQAGGSLRLSCAASGSIFRRYAMGWYRQAPGKERELVAAISFSGYSTYYADSVKGRFTISRDNAKNTVYLQMNSLKPEDTAVYYCAARSQRHKLSRDYNYWGQGTQVTVSS,high polyreactivity
16,QVQLVESGGGLVQAGGSLRLSCAASGSIFRRYAMGWYRQAPGKERELVAGISSGGYTNYADSVKGRFTISRDNAKNTVYLQMNSLKPEDTAVYYCAAKQYRYVRYRPVDYWGQGTQVTVSS,high polyreactivity
17,QVQLVESGGGLVQAGGSLRLSCAASGSIFRSYAMGWYRQAPGKERELVAAIRSDGRTNYADSVKGRFTISRDNAKNTVYFQMNSLKPEDTAVYYCDANAYYSYWRSMDYWGQGTQVTVSS,low polyreactivity
18,QVQLVESGGGLVQAGGSLRLSCAASGSIFRSYAMGWYRQAPGKERELVAAISRRGGSTYYADSVKGRFTISRDNVKNTVYLQMNSLKPEDTAVYYCAADRTGPYDYWGQGTQVTVSS,high polyreactivity
19,QVQLVESGGGLVQAGGSLRLSCAASGSIFRSYAMGWYRQAPGKERELVAAISWDGGTTYYADSVKGRFTISRDNAKNTVYLQMNSLKPEDTAVYYCAADASLLGLFQGYDYRGQGTQVTVSS,low polyreactivity
20,QVQLVESGGGLVQAGGSLRLSCAASGSIFRSYAMGWYRQAPGKERELVAAITSGDSTYYADSVKGRFTISRDNAKNTVYLQMNSLKPEDTAVYYCATGLGSTDRSYEYWGQGTQVTVSS,low polyreactivity
21,QVQLVESGGGLVQAGGSLRLSCAASGSIFRSYAMGWYRQAPGKERELVASISRRGGSTYYADSVKGRFTISRDNAKNTVYLQMNSLKPEDTAVYYCAVESGYTRSSDYWGQGTQVTVSS,low polyreactivity

row,Sequence,polyreactivity (PSR sort gate)
1,QVQLVESGGGLVQAGGSLRLSCAASGSIFRSYAMGWYRQAPGKERELVASITWRGGRTYYADSVKGRFTISRDNAKNTVYLQMNSLKPEDSAVYYCNVDVPGVRFEYWGQGTQVTVSS,low polyreactivity
2,QVQLVESGGGLVQAGGSLRLSCAASGSIFRSYAMGWYRQAPGKERELVATIDRSGGSTYYADSVKGRFTISRDNAKNTVYLQMNSLKPEDTAVYYCNKTPHFPRPGFNYWGQGTQVTVSS,low polyreactivity
3,QVQLVESGGGLVQAGGSLRLSCAASGSIFRSYAMGWYRQAPGKERELVSAIRGSDGNTYYADSVKGRFTISRDNAKNTVYLQMNSLKPEDTAVYYCNARSYGYRTSRARYNYWGQGTQVTVSS,high polyreactivity
4,QVQLVESGGGLVQAGGSLRLSCAASGSIFRSYAMGWYSQAPGKERELVASISRRGGSTYYADSVKGRFTMSRDHAKNTVYLQMNSLKPEDTAVYYCAAVRYNSRVSTTPSEMYYWGQGTQVTVSS,low polyreactivity
5,QVQLVESGGGLVQAGGSLRLSCAASGSIFRTNAMGWYRPAPGKERELVAAITGSGGSTYYADSVKGRFTISRDNAKNTVYLQMNSLKPEDTAVYYCATPVNRERHAEDYWGQGTQVTVSS,low polyreactivity
6,QVQLVESGGGLVQAGGSLRLSCAASGSIFRTYAMGWYRQAPGKERELVAAISQSGGSTYYADSVKGRFTISRDNAKNTVYLQMNSLKPEDTAVYYCNKYFTRRQSAVSLSPGKFDYWGQGTQVTVSS,high polyreactivity
7,QVQLVESGGGLVQAGGSLRLSCAASGSIFRTYAMGWYRQAPGKERELVAAITSGGSTYYADSVKGRFTISRDNAKNTVYLQMNSLKPEDTAVYYCAAVRYYRYWYYWGQGTQVTVSS,high polyreactivity
8,QVQLVESGGGLVQAGGSLRLSCAASGSIFRTYSMGGYRQAPGKERELVATITFGGVSTYYADSVKGRFTISRDNAKNTVYLQMNSLKPEDTAVYYCAADVYTRFWRVYRFDYWGQGTQVTVSS,low polyreactivity
9,QVQLVESGGGLVQAGGSLRLSCAASGSIFRVYAMGWYRQAPGKEREFLAAITTRGGSTYYADSVKGRFTISRDNAKNTVYLQMNSLKPEDTAVYYCAARGWVSAYYGYDYWGQGTQVTVSS,high polyreactivity
10,QVQLVESGGGLVQAGGSLRLSCAASGSIFRVYAMGWYRQAPGKERELVASMSSDGSTYYADSVKGRFTISRDNAKNTVYLQMNSLKPEDTAVYYEYDWGQGTQVTVSS,low polyreactivity
11,QVQLVESGGGLVQAGGSLRLSCAASGSIFRVYTMGWYIQAPGKERELVAAISRSGGRTYYADSVKGRFTISRDNAKNTVYLQMNSLKPEDTAVYYCAARSSLYRAGYRYNSWGQGTQVTVSS,high polyreactivity
12,QVQLVESGGGLVQAGGSLRLSCAASGSIFRVYTMGWYRQAPGKERELVAAISRSGGRTYYADSVKGRFTISRDNAKNTVYLQMNSLKPEDTAVYYCNAQYGGQYGYGYWGQGTQVTVSS,high polyreactivity
13,QVQLVESGGGLVQAGGSLRLSCAASGSIFRWNAMGWYIQAPGKERELVAAIDSGGSTYADSVKGRFTISRDNAKNTVYLQMNSLKPDDTAVYYCAAEIPDEWPYDYWGQGTQVTVSS,low polyreactivity
14,QVQLVESGGGLVQAGGSLRLSCAASGSIFRWNAMGWYRQSPGKERELLAAIDSGGSTYADSVKGRFTISRYNAKNTVYLQMYSLKPEDTAVYYCAAEIPDEWPYDYWGQGTQVTVSS,low polyreactivity
15,QVQLVESGGGLVQAGGSLRLSCAASGSIFRWYAMGWSRQAPGKEREFVAAITSSGGSTYYADSVKGRFTISRDNAKNTVYLQMNSLKPEDTAVYYCNRRYQPYSYDYWGQGTQVTVSS,high polyreactivity
16,QVQLVESGGGLVQAGGSLRLSCAASGSIFRWYDMGWYRQAPGKERELVAVISKRGGSTYYADSVKGRFTISRDNAKNTVYLQMNSLKPEDTAVYYCAKRYERWQLARLDYWGQGTQVTVSS,high polyreactivity
17,QVQLVESGGGLVQAGGSLRLSCAASGSIFRYNALGWYRQAPGKEREFVAAITRSGGSTYADSVKGRFTISRDNAKNTVYLQMNSLKPEDTAVYYCAATFKWYSHTKPRFDYWGQGTQVTVSS,low polyreactivity
18,QVQLVESGGGLVQAGGSLRLSCAASGSIFRYNAMGRYRQAPGKERELVAAITSNGGSTYYADSVKGRFTISRDNAKNTVYLQMNCQKPEDTAVYYCNAVYTFTRRYGYWGQGTQVTVSS,high polyreactivity
19,QVQLVESGGGLVQAGGSLRLSCAASGSIFRYNAMGWSRQAPGKEREFVAAISYSGGRTYYADSVKGRFTISRDNAKNTVYLQMNSLNPEDTAVYYCNAQYASGRSYFFYWHRYDYWGQGTQVTVSS,high polyreactivity
20,QVQLVESGGGLVQAGGSLRLSCAASGSIFRYNAMGWYRKAPGKERELVAAISYRGGSTYYADSVKGRFTISRDNAKITVYLQINSLKPEDTAVYYCAAAVQYSGYRFNYWGQGTQVTVSS,high polyreactivity
